Assay results from publication PMC2945938, “The characterization of conserved binding motifs and potential target genes for M. tuberculosis MtrAB reveals a link between the two-component system and the drug resistance of M. smegmatis”.

What was measured:
[1] = biological target: T1, MtrA (Mycobacterium tuberculosis) (UniProt P9WGM7); test: DNase I footprinting
T1 sequence: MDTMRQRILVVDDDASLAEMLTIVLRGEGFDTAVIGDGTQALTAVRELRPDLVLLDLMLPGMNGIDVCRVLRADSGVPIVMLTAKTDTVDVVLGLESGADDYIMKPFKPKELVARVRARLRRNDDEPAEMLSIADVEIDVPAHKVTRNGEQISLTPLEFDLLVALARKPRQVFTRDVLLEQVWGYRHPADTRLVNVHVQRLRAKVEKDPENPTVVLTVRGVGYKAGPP

MtrA [2] = biological target: T2, MtrA (Mycobacterium tuberculosis, UniProt P9WGM7 1-228); test: EMSA; 100-600 nM MtrA; conditions: protein: recombinant, tags: 6His (pET28a) or GST (pGEX-4T-1), chain copies: 2
T2 sequence: T1 sequence

MtrA [3] = biological target: T2, MtrA; test: EMSA; conditions: protein: recombinant; tags: 6His (pET28a) or GST (pGEX-4T-1); chain copies: 2; label: 32P

Molecule: AATTCTAGCGGCCCGGACAACTTGAACCGGGTGTTTTCAACACGAGGATCGCGAGCCGTTGCCGGTAGGTTGCGGCTGGT (double strand) [S7 (75 bp)]
- binding [1]: binds

Molecule: AATTCTACGGAAAACTGTTAGCTTCGGGCGGTGTAGTTATCACGCCGTTTCAGCGTGGAAACGGCACTCGACAATCAAGCGAGGATGGC (double strand) [S6 (84 bp)]
- binding [1]: binds

B1: S5 (dsDNA)
DNA 1: AACACGAGGATCGCGAGCCGTTGCCGGTAGGTTGCGGCTGGT
DNA 2: ACCAGCCGCAACCTACCGGCAACGGCTCGCGATCCTCGTGTT
- binding result (MtrA [2]; label: 32P (EMSA)): binds

B2: S2 (dsDNA)
DNA 1: TCACGCCGTTTCAGCGTGGAAACGGCACTC
DNA 2: GAGTGCCGTTTCCACGCTGAAACGGCGTGA
- binding result (MtrA [2]; label: 32P (EMSA)): binds

B3: S3 (dsDNA)
DNA 1: TTTCAGCGTGGAAACGGCACTC
DNA 2: GAGTGCCGTTTCCACGCTGAAA
- binding result (MtrA [2]; label: 32P): no binding

B4: S4 (dsDNA)
DNA 1: GCGAGCCGTTGCCGGTAGGTTGCGGCTGGT
DNA 2: ACCAGCCGCAACCTACCGGCAACGGCTCGC
- binding result (MtrA [2]; label: 32P): no binding

B5: S1 (dsDNA)
DNA 1: GCGGTGTAGTTATCACGCCG
DNA 2: CGGCGTGATAACTACACCGC
- binding result (MtrA [2]; label: 32P): binds

B6: Rv3476cp (kgtP) (dsDNA)
DNA 1: CTGCATCCACGCCGGCGACACGCCGAGGGACG
DNA 2: CGTCCCTCGGCGTGTCGCCGGCGTGGATGCAG
- binding result (MtrA [3]): binds

B7: Rv0574cp (dsDNA)
DNA 1: GCGGTCTTGAGGACCTTCGGCCCCACCCACGAGGCCGCCG
DNA 2: CGGCGGCCTCGTGGGTGGGGCCGAAGGTCCTCAAGACCGC
- binding result (MtrA [3]): binds

B8: CgluproPp (dsDNA)
DNA 1: GACTTTTCACCCCGAACCTTA
DNA 2: TAAGGTTCGGGGTGAAAAGTC
- binding result (MtrA [3]): binds

B9: CglumepAp (dsDNA)
DNA 1: CCCCTAGCACGGCGTGTTTGG
DNA 2: CCAAACACGCCGTGCTAGGGG
- binding result (MtrA [3]): binds

B10: Rv0341p (iniB) (dsDNA)
DNA 1: CGCCGGTCACGCCGGCGAACA
DNA 2: TGTTCGCCGGCGTGACCGGCG
- binding result (MtrA [3]): binds

B11: Negative control (dsDNA)
DNA 1: CGGAGGTGGTTTTCGCTGCT
DNA 2: AGCAGCGAAAACCACCTCCG
- binding result (MtrA [3]): no binding
